According to the DeepSol protein solubility set:

Assay: soluble on expression in E. coli; label from the status in PepcDB or PDB records

Sequence | soluble on expression in E. coli
SLGELFAVFNEKLTIPEQEALMFLYAYMPTGDVTDYTGDYYLENVRLSDQARREMPWGKEIPDDVFRHFVLPIRVNNENLDDSRRVFYNELKDRVKNLSLHDAVLEVNHWCHEKVIYTPSDARTSAPLASVKTAYGRCGEESTFTVAALRSVGIPARQVYTPRWAHTDDNHAWVEAWVDGKWYFFGACEPEPVLNLGWFNAPASRGMLMHTKVFGRYTGQEEIMYETPNYTEINVIDNYAPTAKGSVLVTDAEGQPVADATVEFKVYNYAEFYTVATKHTDRSGHASLTAGKGDMLVWASKDGRFGYSKLSFGKDNELKITLDKNASETYSLPLDIVPPAEGANLPEVTPEQRTENDRRMAQEDSIRNAYVATFITEEQARTFAKENKLDETETVRLLIASRGNHQTLTDFLSDAVKADKAGQAISLLKVVSAKDLRDVSPEVLNDHLNNSGLPASEDFCSNVLNPRVANEMITPYKAFFRKEIPASEAEAFRKNPQALVEWCKKEITINNELNSQRIPMSPMGVWKARVADEKSRNIFFVSMARSLGIPAWIDEVTGKIQYRTFNDNNLKNGKVYDVDFEAAQQTQAPTGTLVARYRPIPSLSDPKYYSHFTLSKFRNGTFQLLNYDEGDVDMGGGATWSNLLKNGARLDTGYYMMVTGTRMASGAVLANVTFFTIEEGKTTTVDLVMRESKDQVQVIGNFNSESTYLPIGTSEPQSILQTCGRGYYVVAVLGAGQEPTNHALRDIAALSGEFEKWGRKMVLLFPSEEQYKKFRPSEFPGLPSTITYGIDVDGAIQKQIAESMKLPNSTILPMFIIGDTFNRVVFVSQGYTIGLGEQLMKVIHGEG | soluble
MSLQSLIGLMRPETGKKLENLNHFIQQFEKVLIAFSGGVDSSTLAAVCSNAGVEVLAVTVLSSVSPRREMEEAKRIAEELGVRHEFLKIDLMDEDFRRNDENRCYYCKRRVLSALVEEAKKRGIEVVLEGTNASDLSDHRPGYRAVRELDGVNSPWVEFGITKEEIREIARSMGYSFHDKPSMACLASRIPFGIEIDEEKLKMVDEAEEAVIELAGVKQVRVRNYDGVAVVEVAGDELRKLLNCAEKVRDKLKKIGFRAVLIDLEGYRSGKRLFKFEGHHHHHH | soluble
MDPAKNEYGMGSTLTTLAYEKFAKAAKYNTQQNDLAAPTAQLDIAVSLSGFKEGDSNYPINPILKLTNNSTQTIPGGTRIEFLVPTSTSDTITDQSGMGLKVVESGGNQNSDGIAGEKDFHKAAFTLPTWKAWAPGSDVEVAMTYYLPAAGVPSGIRIISGTQTAGLKAEFPTLPEAVLEHHHHHH | soluble
MAVSAYFHIPFCAHICHYCDFNKVFAAGQPIDDYLRAMDKEMAWTAAEFGSQLKTLFIGGGTPTVLEPAQLGCLLASIHRHFQFDPQTAEFTVEANPDGLTKEKLAILRDAGVNRLSLGVQTFDDQLLQTIGRTHRRGDVIRAVALAREVGFQNISIDVMYGLPGQTLEQFTADLEAAFSLHVPHLSAYSLILEPRTIFYNEWRKGRLRLPGEEMEAEMYEAAMEQMAAAGYRQYEISNYALPGFESRHNLTYWNNEEYYGIGAGAHSYIDGVRRANIGPIRHYISAIERGQWPHRDVRRLTTREQMEEEMFLGLRKTEGVSKACFRQKFGRDLHDIFGAAIRREIENGRLEETETHIRLTKRGKLLGNEVFAAFLGEM | not soluble
MGSDKIHHHHHHMESMLKKICQDPVLQKDKDFLLFLTSDDFSSESKKRAFLTGSGAINDSNDLSEVRISEIQLLGAEDAAEVLKNGGIDAESHKGFMSISFSSLPKYNEADEFFIEKKQKIDELEDNLKKLSKSLEMVDTSRNTLAASTEEFSSMVETLASLNVSEPNSELLNNFADVHKSIKSSLERSSLQETLTMGVMLDDYIRSLASVKAIFNQRSKLGYFLVVIENDMNKKHSQLGKLGQNIHSEKFREMRKEFQTLERRYNLTKKQWQAVGDKIKDEFQGFSTDKIREFRNGMEISLEAAIESQKECIELWETFYQTNL | not soluble
MNCREGCGACCIAPSISTPIPGMPQGKPAGERCLHLSVEHLCGLFGLPERPAVCGAFLADPEVCGESREEAIRLIGWWEQVTAALEHHHHHH | not soluble
MAHHHHHHMKRGGRKKKGTLSNKLGKGKNDPSEDEEVIESETSSDEMGESNSASEESIDSDADNLSDKEQESQAEKQIQIYFTSNVANEKYQMEDTIYTIPATFKRIDLSRMVKKLLDIKENVSFEFLINDQILRSSIEEFLQLNNILSENVIEIKYILSITKKESTPIDKISEWISKLIIIENRLYCSTFGGSALCYDMSNFAKIDARKVADMSIFAFNVCKNDKLIDGEVKYSESVVGLSNGTIRAFLNEEMDQKIVTRSDLYLGNHDDMVKSIAFNKSGSLLITGGADNKINLYDNKEIVQKLKEYKSENDTNKRKMKHVLTPKKCIHKDVGIITTLTFFNSNNHFLCTGLEKNIKIYDADTADLFATLPYGKAIMCSDILNDNLFVTADEQSVIKLFDVRCLEEKAVISMNENKYFFHDKVITSLWGNKNGIHFLSSSHDGFTNIYDVRLNKFPVYTIQTEDKSKVLSSTWFYRESNNYVINADENNLTLHSF | not soluble
MGHHHHHHSHMANSAGSMANSAGSMFKLYSLAREFARDLLFEINGDVVTLSIKGVLLANTSSTSSNFSIFEVSENEFILAIQTSGYVVYLGIEAEEEIEEEVYPSLVRIIISEVMPIINNLVQVAKELSYKGADILLDDNMSSSLREAMYNLLLKHKKGKSPYEQVEVA | not soluble
MSITSPVSNTWAPTVKGPHGTQSKIDTKSLSPNLSRAELRKQVRLARRSLSTEVQAEASINACERMLKKLMAMNAQHVALYLTHDGELATAPLIAALWQRGIQTYLPRLHPFNAGQLLFLHYHADSPMQPNQYGILEPKLDVRSVMPIERLDVVVTPLVAFDIKGNRMGMGGGYYDRTLANWQDNGKPLPMGYAHDCQQVPSLPCEHWDVPLPAIITPSRVWEFLEHHHHHH | soluble
MKLEVTPKAQQWFKEETGVQPETGIRFFGKIYGKTPVHDGFSIAMSVEAPDEPMIKENLDGITYFIEETDDWFFKGYDLIVDYDEKNDEPRYQFEANQEDLTK | not soluble
SGAISGDSLISLASTGKRVSIKDLLDEKDFEIWAINEQTMKLESAKVSRVFMTGKKLVYILKTRLGRTIKATANHRFLTIDGWKRLDELSLKEHIALPRKLESSSLQLSPEIEKLSQSDISWDSIVSITETGVEEVFDLTVPGPHNFVANDIIVHASI | soluble
MSQVQNNSSVSELLASNSGSIKSYRKDEEDPQDRFLKLLVTQMQNQDPLSPMDNAEVTSQMAQISTVSGIDKLNTTLEKLVADSDARRSFEAATMIGRGVLVPGTDMQLENQAAIGGFELAESVDKLTVTVKDSAGITVREIDLGAQAAGVGTFVWDGMANNGNAAADGQYSFALKAIRADKEVSSSALAFGSVSSAQAGKDGALLEVGRLGYVGMDAVKKIF | not soluble
MSLNVRIYCRASTEGQHADRALTSLREFSKSKGWQIAGEYIENASGAKLERVELMRLLSEAQSGDLLLVEAIDRLSRLEHSAWVELKDTLNRKGLIIVSMDLPTSWQMVEMAGNDLTSGILRAVNAMLIDILATMARQDYETRRKRQQQGIERAKSEGIYIGRAKNQEAREIVREMLEQGVKPELIMKAAGISRATYYRIKNELLIVKSEGHHHHHH | soluble
MILKLKYYREAMNLTQEELARHAKVSVAMVQSMENGRRKGSTDTILKLSDALNVTVDDLLRGNNMTISHKKETSK | not soluble
ISDTLNIQRKKIILYAPTFRDYNMQSIQLPFTEEQLIHQLKEEYVLFVKLHPAIQNNIDIKYSSDYIKDVSNYALFDLLMAADILITDYSSVPFEFSILNKPILFYTYDLKLYQQKRGLVDNYLSIIPGRACYDSESLINEIQTPFNYSKIKVFSDRWNKYSDGNSSQNLLNFIEN | not soluble
MSASAPAAEGEGTPTQPASEKEPEMPGPREESEEEEDEDDEEEEEEEKEKSLIVEGKREKKKVERLTMQVSSLQREPFTIAQGKGQKLCEIERIHFFLSKKKTDELRNLHKLLYNRPGTVSSLKKNVGQFSGFPFEKGSVQYKKKEEMLKKFRNAMLKSICEVLDLERSGVNSELVKRILNFLMHPKPSGKPLPKSKKTCSKGSKKERNSSGMARKAKRTKCPEILSDESSSDEDEKKNKEESSDDEDKESEEEPPKKTAKREKPKQKATSKSKKSVKSANVKKADSSTTKKNQNSSKKESESEDSSDDEPLIKKLKKPPTDEELKETIKKLLASANLEEVTMKQICKKVYENYPTYDLTERKDFIKTTVKELIS | soluble
